# Data: the supplement of paper PMC9170038
# Tested on: K4 kissing-loop RNA reporter
# Test: apparent KD of K4 kissing-loop reporter; higher = weaker reporter binding
# Details: Eterna round: R107; input ligand: FMN 200 uM
# Method: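 RNA-MaP round R107: designed RNA switches with theophylline, tryptophan, arginine or FMN aptamers are transcribed on-chip within common flanks. They are titrated with a labelled K4 kissing-loop RNA reporter in RNA-MaP buffer (100 mM Tris pH 7.5, 80 mM KCl, 4 mM MgCl2), without ligand or with the indicated ligand. Median apparent KD per design.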
# 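Note: bound reporter read as fluorescence of individual clusters on recovered sequencing chips by microscopy, with normalized cluster intensities fitted with a binding model.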
row,Sequence,apparent KD of K4 kissing-loop reporter [nM]
1,AAAAGAAGAAGUGAUACCAGACAAGCAGUGAUGUUGCGCCAAAGUGAGUGAUGUUCACCAGUCCCUUGGCAGCACAUGCCAAAAG [Same State Theophylline B GF 5],520
2,CAUGGAGUGAUGCUCCAUGGUCGGGCUUGGCAGGAUAUGGGAUCUUCCAGAAGGGCCGAUCCCGGCGAGUGAUGUUCGCUGGUCU [Exclusion FMN A GF 28],167
3,CACUCGGUAUCAGAUACCAGACUAACGAUACCGAGUGUAUCGGGUAGUGAUGUUACCAUAGUCCCUUGGCAGCUGAUAUUCCCUA [Theo B SS t9a],252
4,UUGUUUGGUUGAGAGGUUGGGCGAGAUGAUACCAGUAUAUAAGAAUACCCUUGGCAGCAUAAGAAAGAUAUAGUGAUGUUGUAUA [SSTheophA.M],520
5,AUAUGCAGGAGAAGGAGCGUCGUUGCAAGUGAUGUUUGCAAGCGAGCUUACUAUAUACGACGACAGGUAGGUCGCUCCUGCGUAA [Arg B Ex t2],68.8
6,UUAGGAGUGGAAGGAUAUCCUGGUGUGGGUGAUGUUAGUGAUGUUGGAGGUGCAGUGAUGUUGCGCGGAGAAGGUCCGGUGUUGA [BDazzled - #5 - Exc. FMN B],280
7,UUAGCGACAAGUCAGAUUCUGACAAUUGAUACCAGAUAGAAUUCUAUCCCUUGGCAGCAGUGAUGUUGUUGCAAUAAGUCGCAUU [AK2 Exc Theophylline A],322
8,CCGUGGAGUGAUGUUCCACGUACUACGGAUACCAGCUUUGCCAAAGGCCCUUGGCAGCCGCACGGCUCAGUGAUGUUGGGUCGCG [Same State Theophylline A G10],167
9,GUAGAUAGGCAACAUCCCUAGUCUACAGACUAGGAUAUCAGGAAACUGAGAAGGAGUCUCCUUGCAGUGAUGUUGCAAGAAUAAU [[F]''-[K]'-[F]'-[F1]-[F2]-[K1]-[K2]_Design5],185
10,UGACUACAGGAAUAAUAAUCCUAGUGAUGUUAGGAUAUGCUGAUAAGCAGAAGGAACUGAGAUCGAAAGAUCUCAAAAGUAGUCU [FmnAX 28 Mat Inspired #SwitchBubble #StaticStem #K4Early],139
11,CGGAACGCAUCGGCCGCCACUUUUAUCUGCAGUGAUGUUGCAGUAUCCGAGCAAGGCUGUUGUGAAAGGACCGGGAUGGUCCGUU [Tibeberi],87.5
12,AACUCUCAGACACUUGAGUGAUGUUCGGGCCGAGGACCGGUACGGCCGCCACUCGGGUCUGAGAGAGGUUAUCAAAGAUAGCCAA [Omei KL Tryp A SS A v9],303
13,GUAUCGCUAGGAGGAUAUUUCAAAUAAUAAAUAAAUGGAUAUACGGAGUGAUGUUCCGAUUUACGGAAAGAAGGCCUAGUGAUAC [FMN B 1],136
14,GAGAUAGAGGCGGCCGCCACUAGUGAUGUUAGUGAUGUUAGAAAGAGAAUAGAACAGGGAUUUGAUAGGACCGGGCCAGAUGGAG [wwemullin],57.6
15,UGUACCGAGUCAGGAUAUGCCGUCGAAAGACGAAAGCAGUGAUGUUGCAUCGAUCGAAAGAUCGUUGCAGAAGGGACUUGGUACU [FmnBS 23 #SwitchBubble #StaticStem #DoubleMagnetSystem],873
16,UUUAUAAAGUCGGCCGCCACUGGAUUUAUAUUUGUUUAGUCUGGAUCAAAGUGAUGUUUUGAGUCCAGGACCGGGACAUUUGUUA [whbob_Ex_Tryp_B_w36],92.1

row,Sequence,apparent KD of K4 kissing-loop reporter [nM]
1,AGAGAUAUAUGAGGAUAUGAGAUAGUUAAUGAGUGAGUUAUAGUGUUGUUUGGUUAGUGAUGUUAUUUAGAAGGCGUGAGUGAUG [immumullin],130
2,AUUAAUAUCACGGCCGCCACUGUAUAUUGUUUUUAUAUUUAGAAUAAUUGCCAGUGAUGUUGGAACAGGACCGGGUGAGUUUAUA [#28 K4 Tryptophan B Same State],511
3,UUAGUCUAGAGAAGGAGCGCAGUGAUGUUGCGAAUAAUAAUAAUAAUAAAUAAAUAAUCGAUGCAGGUAGGUCGCUCUAGACAUU [AK1 Exc Arginine B],217
4,GAUAUAGUGAUGUUAUAUACUGAUAGACAACGAGGACCGGUACGGCCGCCACUCGAGAGGGUGAAAAUGAUGAUAAAAUAAUAAU [#01 K4 Tryptophan A Exclusion],341
5,CCAACGUGAAAAGGAUAUCGCGAUGUGCACGACUAGUGAUGUUAGGAGAGGCUCGUUGAAUUGUACCGAGAAGGUUUUGAGUGGG [theeternabot_sameState_KL_FMN_B_16],227
6,GCGGCGGGCCAAGGAUAUAUAUUGGAGUGAUGUUGUUCAUUUAUUUGAGCUAGUGAUGUUGGUCAAAUAGAAGGUGGCCCGCCGC [whbob_Ex_FMNB__2th217],56.5
7,AGACUACUGAUAGGAUAUAACAUCCUAGUCGUAUACCGAAAGGUAUACGAUUCCCUUCUAGUGAUGUUAGAAGGGUCGGUAGUCA [Omei KL FMN B Exc B v12],78.5
8,CGUUUAUUGCAGGAUACCAGUACCCAUUAUGUACGUUUAUAGUAGAGUGAUGUUCUAAAGUACCCUUGGCAGCUUCCCGUGACCC [#22 K4 Theophylline B Exclusion],119
9,AGUGUGCAAAAGCACACUCAGAACAAGGACAAGGAUAUCUACUAAUAGAGAAGGUGUCCUUUCCUUAGUGAUGUUAAGGAUCUGA [Omei KL FMN A SS D v4],270
10,UAGUCCUAGUGAUCCUUAUCAAGUGGUGGGCGAGGACCGGUACGGCCGCCACUCGAAUAUGCAGUGAUGUUGUAAUCCGGAUAAU [Exclusion - Tryptophan A (Freestyle 10)],596
11,CCCUCACGAGUGAUGUUCGUAGGGUACAGUCAGGAUAUCAUGCGGUUGAGAAGGGACAGAGAGGGCGGCGGCGGGUUGCUCCUCU [Beeded],290
12,GGUAGCAUGGCGGCCGCCACUGGAGAGUGAUGUUCUCCACUAGGUUACAACGCCGGACAGUCCACCAGGACCGGGCCAUGCUACC,140
13,UGACUGGACUGAAGGAGCGGGCGAGACAAAGUCUCGAACUCCUAGUGAUGUUAGGAAAUAACCCAGGUAGGUCGCAGUCUAGUCU [ArgBS 7 #SwitchBubble #StaticStem #DoubleMagnet],149
14,UUAGAGAUCUCAGGAUAUCAGUGAUGUUGGUAUCAAGAUCUGAGAUAGAAUUCUAUCUCAGAUCAAUGAGAAGGGAGAUCUCAUU [AK3.3 Exc FMN B],374
15,GGGCGUGGCGCGGCCGCCACUGGGCCUGGGCGCUCGCUGAGUGAUGUUCGUCGGCGGCUGGGUCGUAGGACCGGGUGCUGGUUGG [BDazzled - #7 SS Tryptophan B],529

# Same assay, conditions: Eterna round: R107; input ligand: arginine 13.2 mM
row,Sequence,apparent KD of K4 kissing-loop reporter [nM]
1,AAAAGAAGAAGUGAUACCAGACAAGCAGUGAUGUUGCGCCAAAGUGAGUGAUGUUCACCAGUCCCUUGGCAGCACAUGCCAAAAG [Same State Theophylline B GF 5],927
2,CAUGGAGUGAUGCUCCAUGGUCGGGCUUGGCAGGAUAUGGGAUCUUCCAGAAGGGCCGAUCCCGGCGAGUGAUGUUCGCUGGUCU [Exclusion FMN A GF 28],332
3,CACUCGGUAUCAGAUACCAGACUAACGAUACCGAGUGUAUCGGGUAGUGAUGUUACCAUAGUCCCUUGGCAGCUGAUAUUCCCUA [Theo B SS t9a],203
4,UUGUUUGGUUGAGAGGUUGGGCGAGAUGAUACCAGUAUAUAAGAAUACCCUUGGCAGCAUAAGAAAGAUAUAGUGAUGUUGUAUA [SSTheophA.M],379
5,AUAUGCAGGAGAAGGAGCGUCGUUGCAAGUGAUGUUUGCAAGCGAGCUUACUAUAUACGACGACAGGUAGGUCGCUCCUGCGUAA [Arg B Ex t2],61.7
6,UUAGGAGUGGAAGGAUAUCCUGGUGUGGGUGAUGUUAGUGAUGUUGGAGGUGCAGUGAUGUUGCGCGGAGAAGGUCCGGUGUUGA [BDazzled - #5 - Exc. FMN B],299
7,UUAGCGACAAGUCAGAUUCUGACAAUUGAUACCAGAUAGAAUUCUAUCCCUUGGCAGCAGUGAUGUUGUUGCAAUAAGUCGCAUU [AK2 Exc Theophylline A],253
